By EC50 is commonly meant the midpoint of the concentration-response curve. A high value points to lower potency in that assay.

First the molecules themselves.
B1: 31D9B3 VH1-VL2.2 hIgG1 (antibody, V domains shown)
VH: QVQLVQSGAEVKKPGASVKVSCKASGYTFTDYWVSWVRQAPGQGLEWMGEIYPKNGVSNFNEKFKGRVTMTTDTSTSTAYMELRSLRSDDTAVYYCARQRDYWGQGTLVTVSS
VL: DVVMTQSPLSLPVTLGQPASISCRSSQSLEYGDRYTYLEWYLQRPGQSPRLLIYGVSNRFSGVPDRFSGSGSGTDFTLKISRVEAEDVGVYYCFQATHDPNTFGQGTKLEIK
notes: Humanized, PTM de-risked (VL G(30D)R), human IgG1; also called 31D9B3 VH1-VL2.2 hlgG1
B2: 108F3D1E9 H2L2 hIgG1 (antibody, V domains shown)
VH: QLQLQESGPGLVKPSETLSLTCTVSGYSITSDFAWNWIRQPPGKGLEWMGYISFSGSTSYNPSLKSRVTISRDTSKNQFSLKLSSVTAADTAVYYCAGSRYSWFAYWGQGTLVTVSS
VL: DIQLTQSPSSLSASVGDRVTITCRASESVDTYGNSFMHWYQQKPGKPPKLLIYRASNLESGIPSRFSGSGSGTDFTLTISSLQPEDFATYYCQQSNEDPYTFGGGTKVEIK
notes: Humanized, human IgG1; also called 108F3D1E9 H2L2 hlgG1
B3: 94C4C3 H2L2 hIgG1 (antibody, V domains shown)
VH: B2 VH with F33Y, F54Y, T58I, V68I, G98R, A105D
VL: EIVLTQSPGTLSLSPGERATLSCSASESVDTYGNSFMHWYQQKPGQPPRLLIYRASSLESGIPVRFSGSGSRTDFTLTISRLEPEDFAVYYCQQSNEDPYTFGGGTKVEIK
notes: Humanized, human IgG1; also called 94C4C3 H2L2 hlgG1
B4: 108F3D1E9 H1L4 hIgG1 (antibody, V domains shown)
VH: B2 VH with M49I, R72V, G98R
VL: B2 VL with Q3V, A13V, V19A, K46Q, S64A, G72R, L82V, V108L
notes: Humanized, human IgG1; also called 108F3D1E9 H1L4 hlgG1
B5: 94C4C3 H1L4 hIgG1 (antibody, V domains shown)
VH: B2 VH with F33Y, M49I, F54Y, T58I, R72V, G98R, A105D
VL: B3 VL with E1D, L13V, R49K, L82V, P84A, V108L
notes: Humanized, human IgG1; also called 94C4C3 H1L4 hlgG1
B6: 108F3D1E9 H1L3 hIgG1 (antibody, V domains shown)
VH: B2 VH with M49I, R72V, G98R
VL: B2 VL with Q3V, K46Q, S64A, L82V
notes: Humanized, human IgG1; also called 108F3D1E9 H1L3 hlgG1
B7: 94C4C3 H2L1 hIgG1 (antibody, V domains shown)
VH: B2 VH with F33Y, F54Y, T58I, V68I, G98R, A105D
VL: B3 VL with P47A, V64D, R72G
notes: Humanized, human IgG1; also called 94C4C3 H2L1 hlgG1
B8: 108F3D1E9 H1L2 hIgG1 (antibody, V domains shown)
VH: B2 VH with M49I, R72V, G98R
VL: B2 VL
notes: Humanized, human IgG1; also called 108F3D1E9 H1L2 hlgG1
B9: 94C4C3 H1L2 hIgG1 (antibody, V domains shown)
VH: B2 VH with F33Y, M49I, F54Y, T58I, R72V, G98R, A105D
VL: B3 VL
notes: Humanized, human IgG1; also called 94C4C3 H1L2 hlgG1
B10: 94C4C3 H1L3 hIgG1 (antibody, V domains shown)
VH: B2 VH with F33Y, M49I, F54Y, T58I, R72V, G98R, A105D
VL: B3 VL with L82V, P84A, V108L
notes: Humanized, human IgG1; also called 94C4C3 H1L3 hlgG1
B11: 108F3D1E9 H2L3 hIgG1 (antibody, V domains shown)
VH: B2 VH
VL: B2 VL with Q3V, K46Q, S64A, L82V
notes: Humanized, human IgG1; also called 108F3D1E9 H2L3 hlgG1
B12: 94C4C3 H2L3 hIgG1 (antibody, V domains shown)
VH: B2 VH with F33Y, F54Y, T58I, V68I, G98R, A105D
VL: B3 VL with L82V, P84A, V108L
notes: Humanized, human IgG1; also called 94C4C3 H2L3 hlgG1
B13: 108F3D1E9 H2L1 hIgG1 (antibody, V domains shown)
VH: B2 VH
VL: B2 VL with L4M, P47A, I62V
notes: Humanized, human IgG1; also called 108F3D1E9 H2L1 hlgG1
B14: 94C4C3 H2L4 hIgG1 (antibody, V domains shown)
VH: B2 VH with F33Y, F54Y, T58I, V68I, G98R, A105D
VL: B3 VL with E1D, L13V, R49K, L82V, P84A, V108L
notes: Humanized, human IgG1; also called 94C4C3 H2L4 hlgG1
B15: 108F3D1E9 H2L4 hIgG1 (antibody, V domains shown)
VH: B2 VH
VL: B2 VL with Q3V, A13V, V19A, K46Q, S64A, G72R, L82V, V108L
notes: Humanized, human IgG1; also called 108F3D1E9 H2L4 hlgG1
B16: 31D9B3 VH1-VL2.1 hIgG1 (antibody, V domains shown)
VH: B1 VH
VL: B1 VL with D33S, R34G
notes: Humanized, PTM de-risked (VL D(30C)S), human IgG1; also called 31D9B3 VH1-VL2.1 hlgG1
B17: 31D9B3 VH1.1-VL2.3 hIgG1 (antibody, V domains shown)
VH: B1 VH with N55E
VL: B1 VL with D33T, R34G
notes: Humanized, PTM de-risked, human IgG1; also called 31D9B3 VH1.1-VL2.3 hlgG1
B18: 31D9B3 VH1.1-VL2.1 hIgG1 (antibody, V domains shown)
VH: B1 VH with N55E
VL: B1 VL with D33S, R34G
notes: Humanized, PTM de-risked, human IgG1; also called 31D9B3 VH1.1-VL2.1 hlgG1
B19: 31D9B3 VH1.1-VL2.2 hIgG1 (antibody, V domains shown)
VH: B1 VH with N55E
VL: B1 VL
notes: Humanized, PTM de-risked, human IgG1; also called 31D9B3 VH1.1-VL2.2 hlgG1
B20: 31D9B3 VH1-VL2.3 hIgG1 (antibody, V domains shown)
VH: B1 VH
VL: B1 VL with D33T, R34G
notes: Humanized, PTM de-risked (VL D(30C)T), human IgG1; also called 31D9B3 VH1-VL2.3 hlgG1
B21: 31D9B3 VH1.1-VL2 hIgG1 (antibody, V domains shown)
VH: B1 VH with N55E
VL: B1 VL with R34G
notes: Humanized, PTM de-risked (VH N54E), human IgG1; also called 31D9B3 VH1.1-VL2 hlgG1
B22: 108F3D1E9 H3L2 hIgG1 (antibody, V domains shown)
VH: B2 VH with L2V, P41F, V68I
VL: B2 VL
notes: Humanized, human IgG1; also called 108F3D1E9 H3L2 hlgG1
B23: 108F3D1E9 H3L1 hIgG1 (antibody, V domains shown)
VH: B2 VH with L2V, P41F, V68I
VL: B2 VL with L4M, P47A, I62V
notes: Humanized, human IgG1; also called 108F3D1E9 H3L1 hlgG1
B24: 108F3D1E9 H3L4 hIgG1 (antibody, V domains shown)
VH: B2 VH with L2V, P41F, V68I
VL: B2 VL with Q3V, A13V, V19A, K46Q, S64A, G72R, L82V, V108L
notes: Humanized, human IgG1; also called 108F3D1E9 H3L4 hlgG1
B25: 108F3D1E9 H4L1 hIgG1 (antibody, V domains shown)
VH: B2 VH with L2V, P41F, V68I, S80F, K82Q, A89E
VL: B2 VL with L4M, P47A, I62V
notes: Humanized, human IgG1; also called 108F3D1E9 H4L1 hlgG1
B26: 108F3D1E9 H3L3 hIgG1 (antibody, V domains shown)
VH: B2 VH with L2V, P41F, V68I
VL: B2 VL with Q3V, K46Q, S64A, L82V
notes: Humanized, human IgG1; also called 108F3D1E9 H3L3 hlgG1

Where a chain is given by its changes, count along the chain named. Names may count otherwise.

One experiment has as its target T1, human AMHRII (anti-Mullerian hormone receptor type 2) (human, UniProt Q16671 18-573).
T1 construct: whole, on cells; also called AMHR2; human AMHR2
T1 sequence (looked up): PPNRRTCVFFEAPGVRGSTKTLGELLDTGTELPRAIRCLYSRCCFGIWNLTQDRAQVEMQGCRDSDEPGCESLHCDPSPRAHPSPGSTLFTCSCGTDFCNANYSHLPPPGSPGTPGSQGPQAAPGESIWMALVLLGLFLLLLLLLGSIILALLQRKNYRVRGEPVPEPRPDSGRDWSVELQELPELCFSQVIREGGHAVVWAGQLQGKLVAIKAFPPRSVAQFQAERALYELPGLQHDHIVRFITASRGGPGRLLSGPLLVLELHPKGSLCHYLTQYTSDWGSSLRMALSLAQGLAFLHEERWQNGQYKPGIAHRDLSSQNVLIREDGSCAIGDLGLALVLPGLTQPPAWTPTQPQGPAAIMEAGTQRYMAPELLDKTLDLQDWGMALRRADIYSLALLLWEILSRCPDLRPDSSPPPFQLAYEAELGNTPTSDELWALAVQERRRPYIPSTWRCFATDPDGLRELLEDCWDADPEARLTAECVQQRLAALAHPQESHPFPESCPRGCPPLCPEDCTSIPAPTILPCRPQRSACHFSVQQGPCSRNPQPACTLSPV
Kind of experiment: FACS on Rko cells over-expressing human AMHR2. As to the method:
Rko cells over-expressing AMHR2 were harvested from flasks. 100 μl of 1×10⁶ cells/ml of cells were incubated with primary PTM antibodies in 3-fold serial dilutions starting from 300 nM to 0.001 nM for 30 minutes on ice. After being washed with 200 μl of FACS buffer twice, cells were incubated with secondary antibody for 30 minutes on ice. Cells were washed with 200 μl of FACS buffer twice and analyzed by FACS.
As to B1, it took 0.915 nM to reach a half-maximal effect (EC50) and the “Top (MFI)” value is 17200 MFI.

The next experiment concerns the target T1, human AMHRII (anti-Mullerian hormone …). Nature of the experiment: FACS on CHO-K1 cells over-expressing human AMHR2. Here is the method:
(§1) CHO-K1 cells over-expressed AMHR2 were harvested from flasks. 100 μl of 1×10⁶ cells/ml of cells were incubated with the humanized antibodies in 3-fold serial dilutions starting from 300 nM to 0.001 nM for 30 minutes on ice. After being washed with 200 μl of FACS buffer twice, cells were incubated with secondary antibody for 30 minutes on ice. Cells were washed with 200 μl of FACS buffer twice and analyzed by FACS.
On to B2, for which the EC50 was determined as 0.68 nM and the “Top (MFI)” value stood at 67900 MFI.
With B3, the response was half-maximal at 1.42 nM (EC50) and the “Top (MFI)” value was determined as 56600 MFI.
For the molecule B4, the half-maximal effective concentration (EC50) was found to be 0.88 nM and the “Top (MFI)” value was 70900 MFI.
As to B5, the EC50 is 1.21 nM and the “Top (MFI)” value was 47200 MFI.
For B6, in that order: 0.82 nM and 66700 MFI.
The corresponding values for B7 are 1.31 nM and 52800 MFI.
Consider B8, for which the EC50 was determined as 0.82 nM and the “Top (MFI)” value is 64600 MFI.
For B9, in that order: 1.46 nM and 49600 MFI.
As for B10, the EC50 turned out to be 1.45 nM and the “Top (MFI)” value came out at 50200 MFI.
B11: it took 0.74 nM to reach a half-maximal effect (EC50) and the “Top (MFI)” value is 67300 MFI.
For B12, in that order: 1.32 nM and 55800 MFI.
For B13, in that order: 0.55 nM and 64400 MFI.
For B14, in that order: 1.01 nM and 52500 MFI.
With B15, the EC50 worked out at 0.65 nM and the “Top (MFI)” value turned out to be 70600 MFI.
Consider B16, for which it took 5.52 nM to reach a half-maximal effect (EC50) and the “Top (MFI)” value was determined as 10400 MFI.
Turning to B17, the EC50 was found to be 145 nM and the “Top (MFI)” value came to 6580 MFI.
The corresponding values for B18 are 89.7 nM and 2170 MFI.
As to B19, the midpoint of the response, the EC50, lay at 0.625 nM and the “Top (MFI)” value stood at 14500 MFI.
For B20, in that order: 0.331 nM and 12500 MFI.
In the case of B1, the EC50 is 0.485 nM and the “Top (MFI)” value turned out to be 22400 MFI.
The corresponding values for B21 are 0.875 nM and 16800 MFI.

The target is the same in another experiment. Nature of the experiment: FACS on CHO-K1 cells over-expressing human AMHR2. This is another data set of the same source. As to the method: as §1
B22: a half-maximal response (EC50) required 0.82 nM and the “Top (MFI)” value is 64600 MFI.
The corresponding values for B23 are 0.74 nM and 65400 MFI.
As for B24, the midpoint of the response, the EC50, lay at 0.88 nM and the “Top (MFI)” value came to 70900 MFI.
In the case of B25, the EC50 was 0.55 nM and the “Top (MFI)” value turned out to be 64400 MFI.
The corresponding values for B26 are 0.82 nM and 66700 MFI.

The record behind these values is patent US20240400701A1 (LANOVA MEDICINES DEVELOPMENT, published 2024).
